Legend:
[1] = Clinical studies of Conjugate 57 given IV: dose level, benefit and toxicity; type: in vivo, human
Description: (§1) In previous clincial studies, Conjugate 57 was administered via IV on an every 3 week cycle ([…]). The dose of Conjugate 57 may be 1.0 mg, 2.0 mg, 4.0 mg, 8 mg, 12 mg, 15 mg or MTD, which has been determined to be 18 mg. […] BSA (meters squared), as used herein, can be calculated as the following: the square root of patient height in centimeters times patient weight in kilograms divided by 3600. As shown in FIG. 1A and FIG. 1B, a trend was evident between dose normalized exposure (AUC0-8 and Cmax) vs BSA for Conjugate 57. […] The majority of toxicity observed was at dose levels greater than 8.8 mg/m^2. Based on these unexpected results, that starting dose of Conjuate 57 for patients was changed from 15 mg to 8.8 mg/m^2 or less than 8.8 mg/m^2. Patients received dose levels such as 8.8 mg/m^2, 8.75 mg/m^2, 8.6 mg/m^2, 8.4 mg/m^2, 8.3 mg/m^2, 7.9 mg/m^2, 7.5 mg/m^2, and 6.7 mg/m2.
The risk of over exposure of high Cmax levels in smaller pateints (<1.6 m^2) was reduced. The risk of early discontinuation due to intolerability was reduced and the duration of theray was increased.

[2] = Buffer screening for solution stability of Conjugate 57; type: physicochemical; conditions: acetate buffer at pH range of 4.0 to 4.8, compared with citrate and phosphate buffers
Source text: Conjugate 57 is a free flowing powder. Previusly studies have found the stability of Conjugate 57 is dependent on the pH of the solution.

[3] = Pharmacokinetics of Conjugate 57 in patients; type: in vivo, human
Description: as §1

[4] = patients, dose per body surface area
[5] = human, in vivo, intravenous, in a patient

COc1cc2cc(c1Cl)N(C)C(=O)C[C@H](OC(=O)[C@H](C)N(C)C(=O)CCSSC[C@H](NC(=O)[C@@H]1CSSC[C@H](NC(=O)[C@H](N)Cc3ccccc3)C(=O)N[C@@H](Cc3ccc(O)cc3)C(=O)N[C@H](Cc3c[nH]c4ccccc34)C(=O)N[C@@H](CCCCN)C(=O)N[C@@H]([C@@H](C)O)C(=O)N1)C(N)=O)[C@]1(C)O[C@H]1[C@H](C)[C@@H]1C[C@@](O)(NC(=O)O1)[C@H](OC)/C=C/C=C(\C)C2 [Conjugate 57]
MTD ([1]; IV, every 3 week cycle, flat dose, previous clinical studies): 18 mg
effect on efficacy of changing from flat doses to doses based on body surface area ([1]; patients): no negative effect on efficacy
dose levels at which maximum benefit was observed [1, 4]: ≤ 8.8 mg/m^2
dose levels at which the majority of toxicity was observed [1, 4]: greater than 8.8 mg/m^2
stability in buffered solution [2]: most stability
clearance [3, 5]: 318 mL/min
half-life [3, 5]: ~108 min
exposure (dose normalized AUC0-8 and Cmax) vs body surface area ([3]; patients, FIG. 1A and FIG. 1B): correlateds with body surface area (BSA)

Reference: US20220257766A1, “SSTR-TARGETED CONJUGATES AND FORMULATIONS THEREOF” (TVA (ABC), LLC, priority 2019, published 2022)
